For the assay, the target named is FITC-labelled H3.1 peptide (residues 16-34) trimethylated at K27 (UniProt P68431). The assay is described as follows: fluorescence polarisation; fluorescence anisotropy; 50 nM FITC-labelled H3.1 (16-34) peptide in 20 mM HEPES pH 7.5, 100 mM KCl, 0.1 mM DTT, 10% glycerol; DDX19A added stepwise; 23°C; fit to a simple binding equilibrium.

B1: GST-DDX19A (recombinant full-length DEAD-box helicase 19A) (enzyme)
chain: MATDSWALAVDEQEAAVKSMTNLQIKEEKVKADTNGIIKTSTTAEKTDEEEKEDRAAQSLLNKLIRSNLVDNTNQVEVLQRDPNSPLYSVKSFEELRLKPQLLQGVYAMGFNRPSKIQENALPMMLAEPPQNLIAQSQSGTGKTAAFVLAMLSRVEPSDRYPQCLCLSPTYELALQTGKVIEQMGKFYPELKLAYAVRGNKLERGQKISEQIVIGTPGTVLDWCSKLKFIDPKKIKVFVLDEADVMIATQGHQDQSIRIQRMLPRNCQMLLFSATFEDSVWKFAQKVVPDPNVIKLKREEETLDTIKQYYVLCSSRDEKFQALCNLYGAITIAQAMIFCHTRKTASWLAAELSKEGHQVALLSGEMMVEQRAAVIERFREGKEKVLVTTNVCARGIDVEQVSVVINFDLPVDKDGNPDNETYLHRIGRTGRFGKRGLAVNMVDSKHSMNILNRIQEHFNKKIERLDTDDLDEIEKIAN
B1 returned a Kd of 82 nM.

Values taken from paper PMC8096265, “A functional LSD1 coregulator screen reveals a novel transcriptional regulatory cascade connecting R-loop homeostasis with epigenetic regulation” (Nucleic Acids Research, 2021).
